Source: article PMC7401919
Like-named read-outs stand apart in the source and are kept apart here.

Columns and labels:
[1] = molecular target: lysyl oxidase (rat (endogenous in RRECs)) (UniProt P16636); assay: co-IP
[2] = molecular target: lysyl oxidase (rat (endogenous in RRECs)) (UniProt P16636); assay: co-IP; remark: listed apart in the source

Chain of UniProt P16636 (P16636 22-411): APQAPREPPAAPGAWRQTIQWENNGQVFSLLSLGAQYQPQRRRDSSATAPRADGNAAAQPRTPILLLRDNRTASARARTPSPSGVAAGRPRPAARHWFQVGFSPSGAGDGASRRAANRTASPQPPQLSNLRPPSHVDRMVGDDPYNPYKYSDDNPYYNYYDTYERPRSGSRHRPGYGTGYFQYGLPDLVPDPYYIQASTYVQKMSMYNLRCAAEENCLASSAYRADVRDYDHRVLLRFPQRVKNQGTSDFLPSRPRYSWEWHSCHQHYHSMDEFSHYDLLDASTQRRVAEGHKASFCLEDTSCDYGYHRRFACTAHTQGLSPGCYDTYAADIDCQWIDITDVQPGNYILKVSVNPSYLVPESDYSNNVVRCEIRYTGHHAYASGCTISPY

## collagen IV (natural protein)
[1]
  LOX bound to Coll IV in HG medium, % of normal-glucose control: 138 % of control
[2]
  LOX bound to Coll IV in HG medium, % of normal-glucose control: 144 % of control

## fibronectin (from UniProt P04937 25-2477) (natural protein)
[1]
  LOX bound to FN in HG medium, % of normal-glucose control: 156 % of control
[2]
  LOX bound to FN in HG medium, % of normal-glucose control: 168 % of control
